Tests used:
HLA-A*01:01 = experiment: IEDB peptide-MHC binding, purified MHC/competitive/radioactivity; filed as Kd, often an IC50 or EC50 that approximates it; ≥ and ≤ were set here for values at or beyond the usual limits of such assays
HLA-A*03:01 = experiment: IEDB peptide-MHC binding, purified MHC/direct/fluorescence; filed as Kd, often an IC50 or EC50 that approximates it; ≥ and ≤ were set here for values at or beyond the usual limits of such assays
HLA-A*02:01 [1] = experiment: IEDB peptide-MHC binding, purified MHC/competitive/fluorescence; ≥ and ≤ were set here for values at or beyond the usual limits of such assays
HLA-A*23:01 = experiment: IEDB peptide-MHC binding, purified MHC/competitive/radioactivity; filed as Kd, often an IC50 or EC50 that approximates it; ≥ and ≤ were set here for values at or beyond the usual limits of such assays
HLA-A*24:02 = experiment: as above
HLA-A*02:01 [2] = experiment: IEDB peptide-MHC binding, purified MHC/direct/fluorescence; filed as Kd, often an IC50 or EC50 that approximates it; ≥ and ≤ were set here for values at or beyond the usual limits of such assays
HLA-A*02:02 = experiment: IEDB peptide-MHC binding, purified MHC/competitive/radioactivity; filed as Kd, often an IC50 or EC50 that approximates it; ≥ and ≤ were set here for values at or beyond the usual limits of such assays
HLA-A*02:03 = experiment: as above
HLA-A*02:06 = experiment: as above
HLA-A*26:01 = experiment: as above
HLA-A*30:02 = experiment: as above
[3] = source organism: Dengue virus 1 Brazil/97-11/1997
[4] = source organism: Zaire ebolavirus
[5] = source organism: Dengue virus 4 Philippines/H241/1956
[6] = source organism: Dengue virus 3 Martinique/1243/1999
[7] = source organism: Vaccinia virus WR
[8] = source organism: SARS coronavirus Tor2
[9] = source organism: Mammarenavirus brazilense
[10] = source organism: Dengue virus 2 Jamaica/1409/1983
[11] = source organism: Mammarenavirus whitewaterense
[12] = source organism: Variola major virus
[13] = source organism: Sudan ebolavirus
[14] = source organism: Mammarenavirus guanaritoense
[15] = source organism: Lassa virus Josiah

Row | Sequence | Kd (HLA-A*02:02; [7]) | Kd (HLA-A*02:03; [7]) | Kd (HLA-A*02:06; [7]) | also measured
1 | LIGNENYLDY | – | – | – | Kd (HLA-A*01:01; [3]): 6080 nM
2 | FMWAHPGKK | – | – | – | Kd (HLA-A*03:01; source organism: Corynebacterium jeikeium): 39 nM
3 | WIPYFGPAA | – | – | – | IC50 (HLA-A*02:01 [1]; [4]): 894 nM
4 | SWILRNPGF | – | – | – | Kd (HLA-A*23:01; [5]): 496 nM; Kd (HLA-A*24:02; [5]): 369 nM
5 | PYMPTVIEHL | – | – | – | Kd (HLA-A*23:01; [6]): 43.4 nM; Kd (HLA-A*24:02; [6]): 46.2 nM
6 | ILDGKNCTL | – | – | – | Kd (HLA-A*02:01 [2]; source organism: Influenza A virus (A/turkey/Canada-Ontario/NS-01839-1/05(H3))): 95.1 nM
7 | GLAGLQTDV | – | – | – | Kd (HLA-A*02:01 [2]; source organism: Giardia intestinalis): 175 nM
8 | ISYKDREWCF | – | – | – | Kd (HLA-A*24:02; [5]): 1020 nM
9 | CTIVDSMII | 13900 nM | 1790 nM | 4580 nM | –
10 | SQMETDFLEL | – | – | – | Kd (HLA-A*02:02; [8]): 227 nM; Kd (HLA-A*02:03; [8]): 597 nM; Kd (HLA-A*02:06; [8]): 20.6 nM
11 | LLGLILFVL | 266 nM | 1860 nM | 8140 nM | –
12 | SLFNRGRLK | – | – | – | Kd (HLA-A*03:01; source organism: Mammarenavirus juninense): 42.4 nM
13 | QVKELGIAI | 9050 nM | 882 nM | 3710 nM | –
14 | ALEPRKEIDV | 8370 nM | 11200 nM | ≥ 63300 nM | –
15 | FIMRNFLRSI | 27.7 nM | 0.118 nM | 0.447 nM | –
16 | SAEVERLMEL | 1280 nM | 2500 nM | 1250 nM | –
17 | PIPYSRVNHA | 11700 nM | 15300 nM | 1450 nM | –
18 | ATGFGTNET | – | – | – | IC50 (HLA-A*02:01 [1]; [4]): ≥ 393000 nM
19 | ALINLVQYRI | 8.32 nM | 81.6 nM | 417 nM | –
20 | AYSLTLQGL | – | – | – | Kd (HLA-A*24:02; source organism: Homo sapiens): 45 nM
21 | PTSETMYLTM | 862 nM | 191 nM | 915 nM | –
22 | NLYISDYKML | 1250 nM | 1830 nM | ≥ 36000 nM | –
23 | ATLLAVSGVY | – | – | – | Kd (HLA-A*01:01; [3]): 4920 nM; Kd (HLA-A*26:01; [3]): 2290 nM; Kd (HLA-A*30:02; [3]): 2.47 nM
24 | KNATWCLEV | – | – | – | Kd (HLA-A*02:02; [9]): 1610 nM; Kd (HLA-A*02:03; [9]): 7010 nM; Kd (HLA-A*02:06; [9]): 2310 nM
25 | DVEKRILNTI | ≥ 21000 nM | 12600 nM | 10800 nM | –
26 | HLTTLATIS | – | – | – | IC50 (HLA-A*02:01 [1]; [4]): 69800 nM
27 | PTRTWKVLSI | ≥ 41900 nM | 15100 nM | ≥ 69800 nM | –

Row | Sequence | Kd (HLA-A*02:02; [7]) | Kd (HLA-A*02:03; [7]) | Kd (HLA-A*02:06; [7]) | also measured
28 | LAYVVIGLLF | – | – | – | Kd (HLA-A*23:01; [3]): 36.4 nM
29 | YAGTIKESL | 2070 nM | 2490 nM | 3300 nM | –
30 | QILDNAAKYV | 3930 nM | 3870 nM | 11400 nM | –
31 | TWVTYGTCTT | – | – | – | Kd (HLA-A*24:02; source organism: Dengue virus 2 Peru/IQT2913/1996): ≥ 70300 nM
32 | VFTTNIWLK | – | – | – | Kd (HLA-A*23:01; [10]): ≥ 30900 nM
33 | IISYIILFIL | 66.2 nM | 489 nM | 3930 nM | –
34 | FICNLLLLFV | – | – | – | Kd (HLA-A*02:02; [8]): 2.47 nM; Kd (HLA-A*02:03; [8]): 14.6 nM; Kd (HLA-A*02:06; [8]): 3.96 nM
35 | VIPDELIDV | 609 nM | 43.8 nM | 556 nM | –
36 | ILDNAAKYV | 126 nM | 261 nM | 1810 nM | –
37 | NTYKRSGIM | – | – | – | Kd (HLA-A*26:01; [3]): 6550 nM
38 | LFQLIFFLT | – | – | – | Kd (HLA-A*01:01; [9]): 3330 nM; Kd (HLA-A*24:02; [9]): ≥ 22300 nM; Kd (HLA-A*26:01; [9]): ≥ 77900 nM; Kd (HLA-A*30:02; [9]): 6090 nM
39 | TWMDLLRALI | – | – | – | Kd (HLA-A*23:01; [5]): 21.7 nM; Kd (HLA-A*24:02; [5]): 128 nM
40 | VFGTAYGVLF | – | – | – | Kd (HLA-A*23:01; [3]): 34.4 nM; Kd (HLA-A*24:02; [3]): 73.7 nM
41 | LDFAKVASV | – | – | – | Kd (HLA-A*02:02; [11]): 61.2 nM; Kd (HLA-A*02:03; [11]): 452 nM; Kd (HLA-A*02:06; [11]): 10600 nM
42 | KATLTEGVY | – | – | – | Kd (HLA-A*30:02; [5]): 40.1 nM
43 | KLPTLFGRGV | 190 nM | 32.6 nM | 52.6 nM | –
44 | NLDDVYSYI | – | – | – | Kd (HLA-A*02:02; [12]): 0.722 nM; Kd (HLA-A*02:03; [12]): 96 nM; Kd (HLA-A*02:06; [12]): 91.8 nM
45 | IILFQKAFS | – | – | – | IC50 (HLA-A*02:01 [1]; [13]): 67700 nM
46 | HTLIMIGSNA | – | – | – | Kd (HLA-A*26:01; [6]): ≥ 22700 nM
47 | PYLGKREDQW | – | – | – | Kd (HLA-A*23:01; [10]): 1390 nM; Kd (HLA-A*24:02; [10]): 2980 nM
48 | VFHELPSLC | – | – | – | Kd (HLA-A*01:01; [14]): ≥ 78100 nM; Kd (HLA-A*26:01; [14]): ≥ 77900 nM
49 | FMSHVKSVT | 508 nM | 181 nM | 4320 nM | –
50 | LNISGYNFSL | – | – | – | Kd (HLA-A*02:02; [15]): 15.5 nM; Kd (HLA-A*02:03; [15]): 4550 nM; Kd (HLA-A*02:06; [15]): 420 nM
51 | FRSGVPPKV | – | – | – | IC50 (HLA-A*02:01 [1]; [13]): ≥ 169000 nM
52 | SKKEGGAMY | – | – | – | Kd (HLA-A*30:02; [10]): ≥ 76900 nM
53 | ITVDDDGTM | – | – | – | Kd (HLA-A*26:01; [6]): 13900 nM
54 | EVNDTHYTV | 133 nM | 115 nM | 4780 nM | –

Source: the Immune Epitope Database (IEDB)
